According to PMC5493754, “Myosin 7 and its adaptors link cadherins to actin” (Nature Communications, 2017):

Assays:
Details in all cases: both partners purified
FL-harmonin-ΔCter = target: T1, FL-harmonin-ΔCter (human, UniProt Q9Y6N9-1 1-542); assay: MST; as a1 but 150 mM NaCl (for FL-Harmonin-a); YFP-fused partner constant at 100 nM, non-fluorescent protein titrated
T1 construct: Harmonin-a1 (USH1C), human, residues 1-542 of UniProt Q9Y6N9-1; also called FL ΔCter; source: E. coli BL21 (DE3) Rosetta, purified (Glutathione Sepharose 4B, size-exclusion chromatography)
T1 sequence (looked up): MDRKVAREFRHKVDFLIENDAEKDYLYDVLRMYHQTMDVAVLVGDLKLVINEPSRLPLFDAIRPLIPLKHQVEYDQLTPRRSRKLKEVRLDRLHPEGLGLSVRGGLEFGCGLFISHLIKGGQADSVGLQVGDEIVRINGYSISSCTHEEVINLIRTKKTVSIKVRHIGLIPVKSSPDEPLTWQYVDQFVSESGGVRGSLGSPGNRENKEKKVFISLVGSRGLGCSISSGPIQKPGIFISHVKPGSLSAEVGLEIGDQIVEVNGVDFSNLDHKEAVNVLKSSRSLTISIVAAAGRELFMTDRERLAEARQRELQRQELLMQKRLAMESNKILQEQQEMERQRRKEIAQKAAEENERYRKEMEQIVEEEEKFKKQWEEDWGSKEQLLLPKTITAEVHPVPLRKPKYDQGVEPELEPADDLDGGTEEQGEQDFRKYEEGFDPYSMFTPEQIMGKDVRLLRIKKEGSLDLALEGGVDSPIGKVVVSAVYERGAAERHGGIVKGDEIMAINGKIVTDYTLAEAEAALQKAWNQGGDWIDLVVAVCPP

[1] = target: T2, Full length (FL)-harmonin (harmonin-a1) (human, UniProt Q9Y6N9-1 1-552); assay: as above
T2 construct: Harmonin-a1 (USH1C), human, residues 1-552 of UniProt Q9Y6N9-1; also called FL-harmonin-a; source: E. coli BL21 (DE3) Rosetta, purified (Glutathione Sepharose 4B, size-exclusion chromatography)
T2 sequence (looked up): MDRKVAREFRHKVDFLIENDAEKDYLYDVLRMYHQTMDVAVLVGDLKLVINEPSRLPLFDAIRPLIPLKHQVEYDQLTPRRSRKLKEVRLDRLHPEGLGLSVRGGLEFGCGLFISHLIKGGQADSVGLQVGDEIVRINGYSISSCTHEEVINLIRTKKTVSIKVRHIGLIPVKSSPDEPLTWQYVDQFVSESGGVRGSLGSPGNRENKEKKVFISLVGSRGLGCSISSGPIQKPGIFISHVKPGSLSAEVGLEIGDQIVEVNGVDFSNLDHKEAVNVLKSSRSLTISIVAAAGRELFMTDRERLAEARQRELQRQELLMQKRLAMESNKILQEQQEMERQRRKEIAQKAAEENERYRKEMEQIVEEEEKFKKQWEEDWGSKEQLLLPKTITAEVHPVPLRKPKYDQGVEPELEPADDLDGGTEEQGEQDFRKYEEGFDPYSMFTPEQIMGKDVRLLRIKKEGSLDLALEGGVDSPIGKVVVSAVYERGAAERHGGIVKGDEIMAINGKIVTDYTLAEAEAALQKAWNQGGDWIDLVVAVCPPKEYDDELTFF

[2] = target: T3, Myo7a MF2 G1982E (deafness mutant) (human, UniProt Q13402-1 1702-2215, G1982E); assay: MST; YFP-fused partner constant at 100 nM, non-fluorescent protein titrated (16 two-fold dilutions); 20 mM Hepes pH 7.0, 100 mM NaCl, 1 mM EGTA, 0.5 mM TCEP, 0.05% Tween 20; Monolith NT.115
T3 construct: Myosin 7a, human, MF2, residues 1702-2215 of UniProt Q13402-1, with a deafness missense mutation; source: E. coli, purified similarly as wild type (Histrap, CaptoQ, gel filtration)
T3 sequence (looked up): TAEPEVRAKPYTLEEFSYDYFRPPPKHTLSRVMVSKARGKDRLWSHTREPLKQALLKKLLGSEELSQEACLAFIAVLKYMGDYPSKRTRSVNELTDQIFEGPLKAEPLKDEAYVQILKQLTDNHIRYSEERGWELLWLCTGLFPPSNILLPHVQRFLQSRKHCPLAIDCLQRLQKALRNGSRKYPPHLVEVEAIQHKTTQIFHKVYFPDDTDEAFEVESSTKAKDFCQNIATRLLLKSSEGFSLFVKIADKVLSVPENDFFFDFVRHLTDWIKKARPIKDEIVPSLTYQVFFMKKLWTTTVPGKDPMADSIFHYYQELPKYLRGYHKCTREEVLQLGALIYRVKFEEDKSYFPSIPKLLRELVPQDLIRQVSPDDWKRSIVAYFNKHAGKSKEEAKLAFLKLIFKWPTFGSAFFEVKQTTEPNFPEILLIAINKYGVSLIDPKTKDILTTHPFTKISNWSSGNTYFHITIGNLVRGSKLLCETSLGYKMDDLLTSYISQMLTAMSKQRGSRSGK

[3] = target: T4, Myo7a MF2 G2163S (deafness mutant) (human, UniProt Q13402-1 1702-2215, G2163S); assay: as above
T4 construct: Myosin 7a, human, MF2, residues 1702-2215 of UniProt Q13402-1, with a deafness missense mutation; source: E. coli, purified similarly as wild type (Histrap, CaptoQ, gel filtration)
T4 sequence (looked up): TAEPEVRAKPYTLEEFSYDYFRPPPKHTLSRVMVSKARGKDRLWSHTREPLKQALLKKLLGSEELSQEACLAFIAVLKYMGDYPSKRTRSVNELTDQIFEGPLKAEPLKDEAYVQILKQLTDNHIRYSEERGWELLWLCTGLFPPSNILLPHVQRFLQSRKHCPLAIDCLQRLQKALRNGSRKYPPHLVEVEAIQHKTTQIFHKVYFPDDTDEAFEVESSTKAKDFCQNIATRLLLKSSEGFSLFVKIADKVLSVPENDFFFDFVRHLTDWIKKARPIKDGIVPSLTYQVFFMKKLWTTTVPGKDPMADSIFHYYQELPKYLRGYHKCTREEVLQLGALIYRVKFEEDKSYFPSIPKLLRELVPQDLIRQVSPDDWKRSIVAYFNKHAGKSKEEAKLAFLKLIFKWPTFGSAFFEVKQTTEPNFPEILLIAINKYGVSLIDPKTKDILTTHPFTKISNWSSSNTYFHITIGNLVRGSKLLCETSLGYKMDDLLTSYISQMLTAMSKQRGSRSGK

B1: YFP-Harmonin-a PDZ3c (domain or fragment, human, UniProt Q9Y6N9-1 428-552, looked up)
chain: QDFRKYEEGFDPYSMFTPEQIMGKDVRLLRIKKEGSLDLALEGGVDSPIGKVVVSAVYERGAAERHGGIVKGDEIMAINGKIVTDYTLAEAEAALQKAWNQGGDWIDLVVAVCPPKEYDDELTFF
notes: Harmonin-a1 (USH1C), human, residues 428-552 of UniProt Q9Y6N9-1; also called ^YFPPDZ3c (isoA); source: E. coli BL21 (DE3) Rosetta, purified (Glutathione Sepharose 4B, size-exclusion chromatography)
FL-harmonin-ΔCter
  Kd: 2300 nM
[1]
  Kd: 1900 nM
[2]
  Kd: > 60 µM
[3]
  Kd: > 60 µM
